In PMC5510004, “Recruitment and positioning determine the specific role of the XPF‐ERCC1 endonuclease in interstrand crosslink repair”:

What was measured:
[1] = target: T1, XPF C225R;ERCC1 wild type (hsERCC1) (Xenopus laevis;Homo sapiens?, UniProt A0A8J0PXV9;P07992 1-897;1-297, C225R|); assay: fluorescence anisotropy; 2 mM Ca2+; comparable to wild type; 25 mM Hepes pH 8.0, 15% glycerol, 0.1 mg/ml BSA, 2 mM CaCl2, 10 nM DNA, 1 h at room temperature; settings: protein: recombinant;recombinant; tags: FLAG;His; copies: 1;1; label: 5'-FAM on F1; three strands 1:1:1
T1 sequence 1: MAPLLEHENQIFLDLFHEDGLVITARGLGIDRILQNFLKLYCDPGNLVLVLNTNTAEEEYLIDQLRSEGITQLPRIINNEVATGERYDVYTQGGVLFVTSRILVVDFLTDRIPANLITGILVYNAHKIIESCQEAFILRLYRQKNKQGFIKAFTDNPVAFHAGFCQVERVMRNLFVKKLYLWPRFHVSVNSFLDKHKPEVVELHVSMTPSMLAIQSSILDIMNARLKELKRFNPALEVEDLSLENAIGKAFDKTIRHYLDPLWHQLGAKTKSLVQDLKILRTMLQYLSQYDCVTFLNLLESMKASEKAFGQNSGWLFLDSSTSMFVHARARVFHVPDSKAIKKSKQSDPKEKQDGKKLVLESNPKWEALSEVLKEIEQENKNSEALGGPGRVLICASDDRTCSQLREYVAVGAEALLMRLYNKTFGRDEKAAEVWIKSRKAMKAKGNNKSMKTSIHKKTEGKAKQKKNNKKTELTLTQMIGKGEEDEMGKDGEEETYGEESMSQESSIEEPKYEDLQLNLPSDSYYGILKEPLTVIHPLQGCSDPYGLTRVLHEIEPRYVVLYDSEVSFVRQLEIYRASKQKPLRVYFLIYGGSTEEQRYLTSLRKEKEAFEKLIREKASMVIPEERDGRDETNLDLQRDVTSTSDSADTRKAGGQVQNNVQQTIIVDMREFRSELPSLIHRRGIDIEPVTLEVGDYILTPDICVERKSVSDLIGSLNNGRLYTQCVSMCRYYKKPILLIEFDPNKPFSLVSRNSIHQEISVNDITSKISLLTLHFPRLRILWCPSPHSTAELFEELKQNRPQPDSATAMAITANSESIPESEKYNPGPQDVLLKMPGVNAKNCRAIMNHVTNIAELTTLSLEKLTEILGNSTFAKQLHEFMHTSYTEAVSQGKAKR
T1 sequence 2: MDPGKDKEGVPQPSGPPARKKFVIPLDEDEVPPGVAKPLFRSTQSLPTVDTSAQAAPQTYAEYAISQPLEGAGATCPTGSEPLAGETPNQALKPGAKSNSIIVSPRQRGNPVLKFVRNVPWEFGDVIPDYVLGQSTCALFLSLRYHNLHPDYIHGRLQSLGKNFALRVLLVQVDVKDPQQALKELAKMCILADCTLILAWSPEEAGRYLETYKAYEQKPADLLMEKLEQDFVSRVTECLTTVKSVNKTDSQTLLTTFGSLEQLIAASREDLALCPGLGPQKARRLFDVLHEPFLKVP

[2] = target: T2, XPF G314E;ERCC1 wild type (hsERCC1) (Xenopus laevis;Homo sapiens?, UniProt A0A8J0PXV9;P07992 1-897;1-297, G314E|); assay: as above; settings: protein: recombinant;recombinant; tags: FLAG;His; copies: 1;1; label: 5'-FAM on F1; three strands 1:1:1
T2 sequence 1: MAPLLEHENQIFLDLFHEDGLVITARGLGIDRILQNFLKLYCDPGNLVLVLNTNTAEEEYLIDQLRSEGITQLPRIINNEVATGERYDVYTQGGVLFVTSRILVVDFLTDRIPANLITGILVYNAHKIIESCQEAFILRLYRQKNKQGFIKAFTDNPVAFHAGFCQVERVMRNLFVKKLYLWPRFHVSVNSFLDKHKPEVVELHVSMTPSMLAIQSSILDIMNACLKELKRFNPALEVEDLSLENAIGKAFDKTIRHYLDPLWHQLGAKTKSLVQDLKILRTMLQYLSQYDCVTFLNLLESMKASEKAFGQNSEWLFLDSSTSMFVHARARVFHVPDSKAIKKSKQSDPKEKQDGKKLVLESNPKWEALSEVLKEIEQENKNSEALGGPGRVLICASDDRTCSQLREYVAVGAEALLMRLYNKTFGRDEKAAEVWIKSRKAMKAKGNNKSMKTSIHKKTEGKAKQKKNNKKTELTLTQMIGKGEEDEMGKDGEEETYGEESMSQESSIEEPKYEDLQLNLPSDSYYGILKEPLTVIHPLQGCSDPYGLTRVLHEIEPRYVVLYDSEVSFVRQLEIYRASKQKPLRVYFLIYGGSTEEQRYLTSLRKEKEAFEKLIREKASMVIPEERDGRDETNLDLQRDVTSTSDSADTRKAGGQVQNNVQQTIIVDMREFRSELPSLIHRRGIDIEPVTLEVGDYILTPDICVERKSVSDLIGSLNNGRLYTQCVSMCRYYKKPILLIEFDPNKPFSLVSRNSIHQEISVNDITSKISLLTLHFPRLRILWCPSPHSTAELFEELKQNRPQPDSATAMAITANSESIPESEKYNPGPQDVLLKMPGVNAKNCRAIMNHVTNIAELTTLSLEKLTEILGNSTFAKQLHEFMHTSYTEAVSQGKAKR
T2 sequence 2: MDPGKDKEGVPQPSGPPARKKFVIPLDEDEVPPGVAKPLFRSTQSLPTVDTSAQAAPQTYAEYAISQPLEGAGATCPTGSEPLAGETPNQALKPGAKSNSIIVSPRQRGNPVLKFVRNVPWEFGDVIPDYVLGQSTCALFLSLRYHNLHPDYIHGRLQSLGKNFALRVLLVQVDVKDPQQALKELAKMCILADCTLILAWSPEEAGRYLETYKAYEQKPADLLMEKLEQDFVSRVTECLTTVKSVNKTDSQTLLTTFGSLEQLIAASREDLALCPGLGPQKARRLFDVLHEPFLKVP

B1: 3' flap DNA substrate (F1+F2+F3) (dsDNA)
DNA 1: CGCGATGCGGATCCAA
DNA 2: CCTAGACTTAAGAGGCCAGACTTGGATCCGCATCGC
DNA 3: GGCCTCTTAAGTCTAGG
binding result [1]: binds
binding result [2]: binds
